The results in this text go back to patent publication US20230399390A1.

pEC50: −log10 of the molar value.

The target of one test is rat Nogo-A (rat) (UniProt Q9JK11). Nature of the test: cell-based or functional assay.
The target of test [1] is human Nogo-A d20plus region (human aa position 543-866), recombinantly produced in E. coli (human) (UniProt Q9NQC3). The test is described as follows: ELISA, coated d20plus (human, as read from the context), internal standard.

Usually pEC50 stands for the EC50 on a negative log10 scale, so that one unit is a factor of ten.

rat Nogo-A (rat), sequence (Q9JK11 whole entry): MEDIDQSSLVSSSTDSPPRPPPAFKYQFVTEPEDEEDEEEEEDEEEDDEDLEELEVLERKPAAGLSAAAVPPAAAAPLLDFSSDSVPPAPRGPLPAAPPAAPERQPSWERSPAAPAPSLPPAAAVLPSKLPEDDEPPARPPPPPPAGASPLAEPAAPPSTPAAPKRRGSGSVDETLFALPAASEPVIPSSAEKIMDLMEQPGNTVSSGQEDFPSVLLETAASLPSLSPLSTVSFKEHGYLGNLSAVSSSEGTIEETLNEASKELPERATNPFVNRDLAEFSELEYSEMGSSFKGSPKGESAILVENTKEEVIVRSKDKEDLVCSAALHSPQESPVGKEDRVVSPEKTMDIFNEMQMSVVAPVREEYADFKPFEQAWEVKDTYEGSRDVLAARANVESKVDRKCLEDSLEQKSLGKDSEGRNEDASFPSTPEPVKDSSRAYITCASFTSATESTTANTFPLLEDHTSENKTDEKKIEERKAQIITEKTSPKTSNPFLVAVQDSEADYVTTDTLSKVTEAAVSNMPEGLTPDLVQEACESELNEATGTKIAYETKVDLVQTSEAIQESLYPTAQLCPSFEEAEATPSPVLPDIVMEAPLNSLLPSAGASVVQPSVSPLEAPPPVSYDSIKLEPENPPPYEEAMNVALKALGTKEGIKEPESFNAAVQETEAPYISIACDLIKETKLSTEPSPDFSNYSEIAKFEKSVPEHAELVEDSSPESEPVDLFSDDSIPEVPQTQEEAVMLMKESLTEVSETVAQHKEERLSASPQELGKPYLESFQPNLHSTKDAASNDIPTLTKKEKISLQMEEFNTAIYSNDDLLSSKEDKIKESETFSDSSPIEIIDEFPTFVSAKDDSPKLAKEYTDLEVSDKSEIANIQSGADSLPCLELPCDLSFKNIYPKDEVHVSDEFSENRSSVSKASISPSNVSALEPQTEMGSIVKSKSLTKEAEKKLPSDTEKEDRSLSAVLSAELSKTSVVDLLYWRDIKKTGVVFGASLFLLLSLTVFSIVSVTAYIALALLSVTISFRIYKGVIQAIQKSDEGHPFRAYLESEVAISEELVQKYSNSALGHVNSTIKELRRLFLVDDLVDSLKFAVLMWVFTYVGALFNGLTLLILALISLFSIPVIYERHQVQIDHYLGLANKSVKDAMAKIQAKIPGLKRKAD
human Nogo-A d20plus region (human aa position 543-866), recombinantly produced in E. coli (human), sequence (Q9NQC3 543-866 limits assumed): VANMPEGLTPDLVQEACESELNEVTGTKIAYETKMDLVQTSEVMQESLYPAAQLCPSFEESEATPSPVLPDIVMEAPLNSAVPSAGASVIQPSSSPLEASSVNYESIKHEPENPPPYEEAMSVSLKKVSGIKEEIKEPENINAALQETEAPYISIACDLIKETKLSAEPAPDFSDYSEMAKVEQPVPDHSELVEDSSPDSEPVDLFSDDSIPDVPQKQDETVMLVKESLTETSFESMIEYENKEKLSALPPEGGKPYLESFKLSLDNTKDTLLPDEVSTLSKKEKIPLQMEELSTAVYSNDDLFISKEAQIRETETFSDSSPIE

In the case of “murine monoclonal anti-Nogo-A antibody 11C7”, the IC50 for stimulating neurite outgrowth of N1E-115 cells in presence of rat CNS extract with rat Nogo-A (rat) amounted to 19.3 nM. Moreover, the negative logarithm of the EC50 (pEC50) in test [1] is 9.85.
